Laboratory results: the supplement of paper PMC6755084

B1: F1*; the commonest letter at each place (parent)
chain: GAGACCGCAACTGAAAAGTTGTTATCACTTGTCGTAAGACACTTTGGATGGGTTGAAGTTCTGCACGTAGAAGCAAAAGGC

Variants of: B1
Assay: fraction ligated after 30 min (ligated reads / total reads); higher = more ligase activity
Settings: with F1*sub RNA substrate (template-directed ligation), 42 °C
Outline: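 Ligase ribozyme variants were made from oligo-pool templates by PCR amplification, T7 transcription and gel purification. After gel separation, ligated and unligated bands were reverse transcribed with barcoded primers and sequenced on a MiSeq, with core bases filtered at quality ≥20. The fraction ligated for each variant was the number of ligated reads divided by total reads.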

Variant	fraction ligated
G31T A36T	0.785
G31T A36C	0.769
G31T A36G	0.798
T30C G31C T32C C33G G38C A39G C40G A41G	0.892
T30C T49A	0.575
T30C T49G	0.485
T30C T49C	0.0166
T30G T49G	0.808
T30G T49A	0.739
T30G T49C	0.526
T30G G31A	0.853
T30G G31C	0.845
T30G G31T	0.853
G31T T49A	0.146
T30G A36G	0.872
T30G A36C	0.833
T30G A36T	0.841
T30G T32C A39G A41C	0.803
T30C G47C	0.0928
T30C G47T	0.358
T30C G47A	0.798
G31C C33G	0.794
G31C C33T	0.777
G31C C33A	0.798

Variant	fraction ligated
T30C C33T	0.84
T30C C33G	0.837
T30C C33A	0.824
G31A A39G	0.795
G31A A39C	0.78
G31A A39T	0.795
G31C A57G	0.807
G31C A57T	0.793
G31C A57C	0.788
G31A T44C	0.801
G31A T44G	0.819
G31A T44A	0.818
T30G G31C T32G C33G G38C A39C C40G A41C	0.828
T30G C42T	0.817
T30G C42A	0.831
T30G C42G	0.834
T30C T32C	0.726
T30C T32A	0.817
T30C T32G	0.809
G31C A41C	0.492
G31C A41T	0.732
G31C A41G	0.779
G31A A56G	0.687
G31A A56C	0.161

Variant	fraction ligated
G31A A56T	0.724
G31C G47A	0.489
G31C G47T	0.0589
G31C G47C	0.0426
G31C T45G	0.0355
G31C T45A	0.492
G31C T45C	0.0406
T30G T32G C33G G38C A39C A41C	0.862
T30G T32G A39C A41C	0.845
G31T A57T	0.78
G31T A57G	0.819
G31T A57C	0.789
T30G T45C	0.803
T30G T45G	0.46
T30G T45A	0.76
T30C T45A	0.668
T30C T45C	0.475
T30C T45G	0.174
T30C T35A	0.796
T30C T35C	0.824
T30C T35G	0.795
G31A G50A	0.025
G31A G50T	0.195
G31A G50C	0.0295

Variant	fraction ligated
T30C G31C T32G C33G G38C A39C C40G A41G	0.839
T30G T32C C33G G38C A39G A41C	0.835
G31C A39G	0.777
G31C A39T	0.778
G31C A39C	0.779
G31A A37C	0.813
G31A A37G	0.827
G31A A37T	0.826
G31T G38C	0.78
G31T G38T	0.801
G31T G38A	0.802
G31C T49G	0.0675
G31C T49C	0.0658
G31C T49A	0.0574
T30G A48C	0.761
T30G A48G	0.791
T30G A48T	0.796
G31T T45G	0.0586
G31T T45A	0.387
G31T T45C	0.116
T30G T35A	0.845
T30G T35C	0.813
T30G T35G	0.847
G31C T32A	0.803

Variant	fraction ligated
G31C T32G	0.78
G31C T32C	0.796
T30G G31C T32C C33G G38C A39G C40G A41C	0.797
T30C T43G	0.768
T30C T43C	0.788
T30C T43A	0.809
T30G T32A	0.883
T30G T32G	0.865
T30G T32C	0.784
G31C A48T	0.0135
G31C A48G	0.389
G31C A48C	0.242
T30G A39C	0.786
T30G A39G	0.841
T30G A39T	0.779
G31A G47C	0.0647
G31A G47T	0.0708
G31A G47A	0.54
G31A C40A	0.839
G31A C40G	0.85
G31A C40T	0.831
G31T G55C	0.176
G31T G55T	0.759
G31T G55A	0.813

Variant	fraction ligated
G31A A41C	0.74
G31A A41G	0.797
G31A A41T	0.81
T30G G55A	0.846
T30G G55T	0.819
T30G G55C	0.793
G31C T35A	0.796
G31C T35G	0.8
G31C T35C	0.769
T30C G34T	0.787
T30C G34C	0.746
T30C G34A	0.792
G31A G55C	0.205
G31A G55T	0.767
G31A G55A	0.823
T30G G38A	0.843
T30G G38T	0.816
T30G G38C	0.805
G31A A36G	0.595
G31A A36T	0.827
G31A A36C	0.8
T30C C40T	0.808
T30C C40G	0.828
T30C C40A	0.828

Variant	fraction ligated
G31T C33A	0.831
G31T C33G	0.808
G31T C33T	0.777
G31T G34C	0.771
G31T G34T	0.793
G31T G34A	0.775
G31C A56G	0.607
G31C A56T	0.694
G31C A56C	0.155
G31T C42A	0.809
G31T C42G	0.809
G31T C42T	0.822
G31C T44A	0.775
G31C T44G	0.781
G31C T44C	0.792
T30G T43G	0.795
T30G T43C	0.794
T30G T43A	0.859
T30G G34T	0.796
T30G G34A	0.825
T30G G34C	0.795
T30C T32C C33G G38C A39G A41G	0.816
T30G T44A	0.831
